No end group written: not given here.
What was measured:
[1] = biological target: T1, soluble IGF-1R (recombinant human IGF-1R extracellular domain, R&D Systems Cat. # 391-GR/CF) (human, UniProt P08069 31-935); assay: phage ELISA
T1 construct: extracellular domain; Bought protein; coated on plates (phage ELISA, TRF) or Eu-labelled (TR-FRET); also called sIGF-1R; rhIGF-1R

[2] = biological target: T2, soluble human insulin receptor-immunoglobulin heavy chain chimera (human, UniProt P06213 28-956, limits assumed); assay: phage ELISA
T2 construct: extracellular domain; also called sIR-Fc; IR (prepared according to Bass et al., 1996); not shown: immunoglobulin heavy chain constant domains (Bass et al., 1996)

Binder | ratio over background [1] [ratio] | ratio over background [2] [ratio]
AQPCGGFYGLLEQLVGRSVCD (on phage) [20E2B-4-F10-IGFR] | 17.3 | 2.2
RCQGTGFYTCIQELIGFGDPD (on phage) [20E2B-4-H9-IGFR] | 5.2 | 0.9
SGAKVIVVTGDSGDPFYHKLSELLQGS (on phage) [B6Hα-2-C10-IR] | 5.8 | 1.1
ICTGQGFYQVLCGLLRGTSAR (on phage) [20E2B-2-B3-IGFR] | 5.3 | 0.7
SAAQLFFQESFYDWFLRQVAESSQPN (on phage) [H2CA-4-F11-IGFR] | 6.8 | 1
LRIANLFYQRLWDLAFGGGG (on phage) [20E2B-3-E8-IGFR] | 16.7 | 1.5
DRAFYNGLRDLVGAVYGAWD (on phage) [R20α-4-20C11-IR] | 30.8 | 3
NSRDGGFYLQLERLLGFPVTG (on phage) [20E2B-3-D4-IGFR] | 7.9 | 0.8
PGTDLGFYQALRCVVIQGACD (on phage) [20E2B-2-B2-IGFR] | 4.9 | 0.6
GNGDGMFYQLLSLLVGRDMHV (on phage) [20E2B-3-C2-IGFR] | 8.9 | 0.6
LQPCSGFYECIERLIGVKLSG (not fully specified (bridges); cysteine pairing not given here, on phage) [20E2Bβ-4-G7-IR] | 25.2 | 1.6
IQQELTFYDLLHRLVRSELGS (on phage) [20E2B-3-D2-IGFR] | 12.4 | 1.1
GGTEVDFYRALERLVRGQLGL (on phage) [20E2B-3-D8-IGFR] | 17.7 | 1.6
SACQFDCHENFYDWFARQVSGGAAYG (on phage) [H2CA-4-E8-IGFR] | 9.2 | 1
PAGPCGFYCGLGLLLHGDQSP (on phage) [20E2B-4-H8-IGFR] | 5.3 | 0.9
LSVALSFYDALGQLVAGEGRW (on phage) [20E2A-3-A12-IGFR] | 4.3 | 1.1
GCAVVEEAERSRGDPFYHKLSELIQGC (on phage) [B6Hα-3-E7-IR] | 5.6 | 1.3
FYDAIDQLVRGSARAGGTRD (on phage) [R20α-3-20E2-IR] | 39.9 | 3.1
VGTVAGFYDAIAQLVARASRV (on phage) [20E2A-3-C7-ICFR] | 5.4 | 1.1
PVGVQGFYEGLSRLVLGRGGW (on phage) [20E2B-4-F8-IGFR] | 7.3 | 0.8
DSVGDNFYQLLESLVGGHGVG (on phage) [20E2B-3-D6-IGFR] | 17.8 | 2.6
PDLHKGFYAQLAQLIRGQLLS (on phage) [20E2B-3-E3-IGFR] | 16.3 | 1.3
VEGRGLFYDLLRQLLARRQNG (on phage) [20E2B-3-C6-IGFR] | 16.8 | 1.1
RCEEKQAEVGPSSDPFYHKMSELLGCR (on phage) [B6Ha-3-E9-IR] | 24.2 | 1.7
IWATGDFYRLLSQLVMGRVGT (on phage) [20E2B-2-28-IGFR] | 5.7 | 0.8
RGKTAAVIVGRPADPFYHKLSELLQGG (on phage) [B6Hα-3-E8-IR] | 5.3 | 1.1

Binder | ratio over background [1] [ratio] | ratio over background [2] [ratio]
TLRSPTFYDWLEMVLTHGQGG (on phage) [20E2B-1-A8-IGFR] | 4.4 | 0.9
MMVVDGFYDALHQLVVAQSLG (on phage) [20E2A-3-D10-IGFR] | 6.9 | 1.8
GCEVIVEEGDSADPFYHKLSELCQGS (on phage) [B6Hα-2-D1-IR] | 5.4 | 1.3
VNQSGSIHENFYDWFERQVSHQRGVR (on phage) [H2CA-4-F10-IGFR] | 5.7 | 1
LSSDGQFYRALNLLLQGSAGR (on phage) [20E2B-2-B7-IGFR] | 6.1 | 0.9
RQGTGSFYLMLEQLLVGARGP (on phage) [20E2B-4-G11-IGFR] | 4.5 | 0.6
IIGGFYSYFNSVLRLGT (on phage) [NNRPγ-4-A1-IR] | 10.9 | 1.8
QFYGCLLDLSLGVPSFGWRRRCITA (on phage) [20C-3-A4-IGFR] | 8.8 | 1.2
LGVTDGFYAALGYLIHGVGQF (on phage) [20E2B-3-D11-IGFR] | 12.2 | 1.6
QGGSASFYDAIDRLLRMRIGG (on phage) [20E2A-4-F11-IGFR] | 18.8 | 1.3
RGMKEEVLVGGSTDPFYHKLSELLQGS (on phage) [B6Hα-3-F11-IR] | 18.7 | 1.6
VATSQGFYSGLSELLQGGGNV (on phage) [20E2B-3-E12-IGFR] | 6 | 0.8
YSCGDGFYSLLSDLLGGQFRC (on phage) [20E22-4-H12-IGFR] | 9.7 | 0.8
EGSGFYGYFFSLLGLQG (on phage) [NNRPγ-4-A9-IR] | 10 | 1.4
QPAPDGFYSALMKLIGRGGVS (on phage) [20E2B-3-C8-IGFR] | 15.6 | 1.8
KLHNLMFYYGLQRLVWGAGLG (on phage) [20E23-4-H3-IGFR] | 14.8 | 1.1
RFSTDGFYQYLLALVGGGPVG (on phage) [20E2B-1-A11-IGFR] | 9.5 | 1
AVRATRFDEAFYDWFVRQISDGQGNK (on phage) [H2CA-4-F6-IGFR] | 7.3 | 1.1
GCVVEWQKWHGASDPFYHKLSELGGCS (on phage) [B6Hα-3-F10-IR] | 8.8 | 1.9
FFYRCLSRLLGGQLGSRLGLSCIGD (on phage) [20C-3-E4-IGFR] | 7.7 | 1.3
VGYQGQGDENFYDWFIRQVSGRLGVQ (on phage) [H2CA-4-F5-IGFR] | 9.7 | 0.8
RFDPFYSYFVNLLGASA (on phage) [NNRPγ-4-A7-IR] | 6.3 | 1.3
QGNVLDFYGWIGRLLAKQGSD (on phage) [20E2B-3-D12-IGFR] | 6.2 | 0.9
SSYGCDGFYLMLFSLGLVASQELEC (on phage) [20C-3-A1-IGFR] | 20.8 | 1.5
DRDFCRFYERLTALVGGQVDGGWPC (on phage) [20C-3-F6-IGFR] | 26.1 | 1.9
ASSASGFYELLQRLAGLGLEV (on phage) [20E2B-3-C4-IGFR] | 20.4 | 3.3
